From patent US20120308571A1 (FUJIFILM RI PHARMA, published 2012)

T1: human podoplanin (human, UniProt Q86YL7 23-162)
T1 construct: whole, on cells; also called Aggrus
T1 sequence (looked up): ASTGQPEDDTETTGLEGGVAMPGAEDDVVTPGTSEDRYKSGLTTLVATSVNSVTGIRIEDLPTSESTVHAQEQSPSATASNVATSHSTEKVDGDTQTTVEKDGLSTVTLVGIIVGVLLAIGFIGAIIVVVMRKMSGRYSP


Key:
human podoplanin [1] = target: T1, human podoplanin; test: flow cytometry on H2052 mesothelioma cells, 10 ug/ml antibody
Method: Meanwhile, the expression of podoplanin in the mesothelioma cells was confirmed by flow cytometry. Specifically, the cells were reacted with NZ-1 antibodies (10 μg/ml) at 4° C. for 30 minutes, and further reacted with anti-rat IgG-FITC antibodies at 4° C. for 30 minutes. Fluorescence intensity was measured by FACSCalibur (BD).

human podoplanin [2] = target: T1, human podoplanin; test: flow cytometry on H226 and LN319 cells, 10 ug/ml antibody
Method: First, NZ-1 antibodies, mouse chimera-type NZ-1 antibodies, and human chimera-type NZ-1 antibodies (10 μg/ml) were reacted at 4° C. for 30 minutes with human malignant mesothelioma cells (H226) and human glioma cells (LN319) which expressed human podoplanin. In addition, anti-rat IgG-FITC antibodies, anti-mouse IgG-FITC antibodies, and anti-human IgG-FITC antibodies were respectively reacted at 4° C. for 30 minutes. The fluorescence intensity was measured by FACSCalibur (BD).

Row | binding result (human podoplanin [1]) | binding result (human podoplanin [2]) | Binder
1 | binds | – | rat NZ-1 antibody (antibody, Rat monoclonal antibody from the NZ-1 hybridoma; also called rat monoclonal antibody NZ-1) heavy: EVQLVESGGGLVQPGRSLKLSCAASGFTFSNYGMAWVRQTPTKGLEWIASISAGGDKTYYGDSVKGRFSISRDNAKTTHYLQMDSLRSEDTATYYCAKTSRVYFDYWGQGVMVTVSSAETTAPSVYPLAPGTALKSNSMVTLGCLVKGYFPEPVTVTWNSGALSSGVHTFPAVLQSGLYTLTSSVTVPSSTWSSQAVTCNVAHPASSTKVDKKIVPRECNPCGCTGSEVSSVFIFPPKTKDVLTITLTPKVTCVVVDISQNDPEVRFSWFIDDVEVHTAQTHAPEKQSNSTLRSVSELPIVHRDWLNGKTFKCKVNSGAFPAPIEKSISKPEGTPRGPQVYTMAPPKEEMTQSQVSITCMVKGFYPPDIYTEWKMNGQPQENYKNTPPTMDTDGSYFLYSKLNVKKETWQQGNTFTCSVLHEGLHNHHTEKSLSHSPGK light: QFVLTQPNSVSTNLGSTVKLSCKRSTGNIGSNYVNWYQQHEGRSPTTMIYRDDKRPDGVPDRFSGSIDRSSNSALLTINNVQTEDEADYFCHSYSSGIVFGGGTKLTVLGQPKSTPTLTVFPPSTEELQGNKATLVCLISDFYPSDVEVAWKANGAPISQGVDTANPTKQGNKYIASSFLRLTAEQWRSRNSFTCQVTHEGNTVEKSLSPAECV
2 | – | binds | mouse chimera-type NZ-1 antibody (antibody, Heavy chain is the VH and CH1 of rat NZ-1 joined to the hinge, CH2 and CH3 of mouse IgG2a; Light chain is the rat NZ-1 L chain; also called mouse chimeric antibody; mouse chimera-type antibody) heavy: EVQLVESGGGLVQPGRSLKLSCAASGFTFSNYGMAWVRQTPTKGLEWIASISAGGDKTYYGDSVKGRFSISRDNAKTTHYLQMDSLRSEDTATYYCAKTSRVYFDYWGQGVMVTVSSAETTAPSVYPLAPGTALKSNSMVTLGCLVKGYFPEPVTVTWNSGALSSGVHTFPAVLQSGLYTLTSSVTVPSSTWSSQAVTCNVAHPASSTKVDKKIVPRRSPPLKECPPCAAPDLLGGPSVFIFPPKIKDVLMISLSPMVTCVVVDVSEDDPDVQISWFVNNVEVHTAQTQTHREDYNSTLRVVSALPIQHQDWMSGKEFKCKVNNRALPSPIEKTISKPRGPVRAPQVYVLPPPAEEMTKKEFSLTCMITGFLPAEIAVDWTSNGRTEQNYKNTATVLDSDGSYFMYSKLRVQKSTWERGSLFACSVVHEGLHNHLTTKTISRSLGK light: QFVLTQPNSVSTNLGSTVKLSCKRSTGNIGSNYVNWYQQHEGRSPTTMIYRDDKRPDGVPDRFSGSIDRSSNSALLTINNVQTEDEADYFCHSYSSGIVFGGGTKLTVLGQPKSTPTLTVFPPSTEELQGNKATLVCLISDFYPSDVEVAWKANGAPISQGVDTANPTKQGNKYIASSFLRLTAEQWRSRNSFTCQVTHEGNTVEKSLSPAECV
3 | – | binds | human chimera-type NZ-1 antibody (antibody, Heavy chain is the VH of rat NZ-1 joined to the CH1, hinge, CH2 and CH3 of human IgG1; also called human chimeric antibody; human chimera-type antibody) heavy: not shown light: QFVLTQPNSVSTNLGSTVKLSCKRSTGNIGSNYVNWYQQHEGRSPTTMIYRDDKRPDGVPDRFSGSIDRSSNSALLTINNVQTEDEADYFCHSYSSGIVFGGGTKLTVLGQPKGIRTVAAPSVFIFPPSDEQLKSGTASVVCLLNNFYPREAKVQWKVDNALQSGNSQESVTEQDSKDSTYSLSSTLTLSKADYEKHKVYACEVTHQGLSSPVTKSFNRGEC
